Consider three molecules from PMC5802723, “Pro-metastatic collagen lysyl hydroxylase dimer assemblies stabilized by Fe^2+-binding” (Nature Communications, 2018).

Data set [1] addresses bovine skin collagen substrate containing no telopeptides (Bovine PureCol) (bovine) (UniProt P02453).
Data set [2] concerns the target L230 LH domain (amino acids 680-895), wild type (Acanthamoeba polyphaga mimivirus). The data set can be described thus: MST; Atto647-labelled L230 (40 nM, 10 ul) mixed with equal volume of unlabelled L230 (8.5 uM-0.5 nM); incubated at 25 °C for 15 min, measured at 20 °C; dimer to monomers.
Data set [3] has the same target. Briefly: SAXS; L230 LH domain in solution, three concentrations diluted from 6 mg/ml, merged; SIBYLS beamline.
Data set [4] has the same target. The data set can be described thus: SEC-MALS; L230 variants, 3 mg/ml, 150 ul, Superdex 75; 20 mM Tris pH 8, 200 mM NaCl, 0.02% sodium azide, room temperature.
Data set [5] concerns the molecule itself. The data set can be described thus: SEC-MALS; Human LH2 proteins, 2 mg/ml, 100 ul, Superdex 200; 20 mM Tris pH 8, 200 mM NaCl, 0.02% sodium azide, room temperature.

Chain of bovine skin collagen substrate containing no telopeptides (Bovine PureCol) (bovine) (P02453 162-1217, chain 1 of 2): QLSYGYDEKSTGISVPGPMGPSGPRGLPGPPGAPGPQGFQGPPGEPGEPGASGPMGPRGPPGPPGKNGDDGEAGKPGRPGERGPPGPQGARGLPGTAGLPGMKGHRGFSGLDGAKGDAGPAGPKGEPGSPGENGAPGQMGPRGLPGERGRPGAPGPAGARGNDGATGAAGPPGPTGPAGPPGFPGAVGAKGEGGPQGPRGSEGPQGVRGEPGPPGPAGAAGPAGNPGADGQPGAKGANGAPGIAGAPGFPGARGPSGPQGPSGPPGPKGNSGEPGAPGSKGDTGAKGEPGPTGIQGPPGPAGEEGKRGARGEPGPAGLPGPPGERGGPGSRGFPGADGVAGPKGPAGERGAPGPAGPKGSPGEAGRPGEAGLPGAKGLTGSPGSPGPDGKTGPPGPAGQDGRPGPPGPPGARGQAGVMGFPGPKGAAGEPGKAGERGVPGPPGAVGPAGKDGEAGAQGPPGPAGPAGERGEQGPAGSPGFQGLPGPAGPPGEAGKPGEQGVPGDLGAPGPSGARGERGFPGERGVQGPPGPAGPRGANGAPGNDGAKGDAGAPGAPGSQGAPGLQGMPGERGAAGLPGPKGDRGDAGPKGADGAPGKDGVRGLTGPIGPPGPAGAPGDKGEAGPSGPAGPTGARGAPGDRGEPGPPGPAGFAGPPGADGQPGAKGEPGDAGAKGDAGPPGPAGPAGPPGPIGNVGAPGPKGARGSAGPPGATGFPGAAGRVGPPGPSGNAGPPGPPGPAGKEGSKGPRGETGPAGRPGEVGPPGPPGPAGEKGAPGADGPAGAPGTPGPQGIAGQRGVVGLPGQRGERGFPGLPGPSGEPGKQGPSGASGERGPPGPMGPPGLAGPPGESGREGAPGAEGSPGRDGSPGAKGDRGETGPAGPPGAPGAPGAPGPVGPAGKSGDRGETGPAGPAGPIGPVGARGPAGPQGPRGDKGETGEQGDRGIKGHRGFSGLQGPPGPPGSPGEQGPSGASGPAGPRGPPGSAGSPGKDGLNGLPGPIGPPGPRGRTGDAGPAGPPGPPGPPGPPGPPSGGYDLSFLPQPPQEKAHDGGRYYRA
Chain of bovine skin collagen substrate containing no telopeptides (Bovine PureCol) (bovine) (P02465 80-1117, chain 2 of 2, further chain): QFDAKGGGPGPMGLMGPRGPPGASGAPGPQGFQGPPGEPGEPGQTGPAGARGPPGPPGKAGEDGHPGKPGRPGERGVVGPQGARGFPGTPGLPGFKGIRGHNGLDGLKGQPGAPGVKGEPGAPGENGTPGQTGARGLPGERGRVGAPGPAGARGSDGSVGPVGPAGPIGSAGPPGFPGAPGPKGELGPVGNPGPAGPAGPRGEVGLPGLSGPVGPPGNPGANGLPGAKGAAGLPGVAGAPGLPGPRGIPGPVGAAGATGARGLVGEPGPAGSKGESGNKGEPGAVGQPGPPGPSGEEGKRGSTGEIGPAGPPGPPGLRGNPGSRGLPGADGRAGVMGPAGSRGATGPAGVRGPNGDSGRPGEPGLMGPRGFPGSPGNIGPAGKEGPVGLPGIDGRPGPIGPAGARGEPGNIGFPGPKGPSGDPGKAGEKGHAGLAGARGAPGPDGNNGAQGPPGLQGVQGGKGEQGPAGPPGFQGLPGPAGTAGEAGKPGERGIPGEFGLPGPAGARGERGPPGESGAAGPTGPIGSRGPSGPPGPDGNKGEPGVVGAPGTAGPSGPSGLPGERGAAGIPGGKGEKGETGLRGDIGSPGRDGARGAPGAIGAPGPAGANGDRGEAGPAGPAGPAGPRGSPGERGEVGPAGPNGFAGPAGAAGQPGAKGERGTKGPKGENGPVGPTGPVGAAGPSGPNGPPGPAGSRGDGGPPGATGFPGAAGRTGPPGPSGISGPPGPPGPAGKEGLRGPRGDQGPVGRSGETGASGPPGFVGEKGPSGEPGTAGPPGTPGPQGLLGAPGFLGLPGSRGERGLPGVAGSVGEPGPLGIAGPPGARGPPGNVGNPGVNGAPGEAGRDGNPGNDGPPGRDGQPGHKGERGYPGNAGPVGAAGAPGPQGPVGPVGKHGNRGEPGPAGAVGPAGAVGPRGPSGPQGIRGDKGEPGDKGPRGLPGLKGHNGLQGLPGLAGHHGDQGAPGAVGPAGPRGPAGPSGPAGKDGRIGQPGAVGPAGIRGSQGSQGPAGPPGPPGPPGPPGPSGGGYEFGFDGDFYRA

Regarding “L230 LH domain (amino acids 680-895) K804E (domain or fragment)”, the estimated Km for bovine skin collagen in the enzymatic assay (succinate production); achievable collagen concentrations did not saturate activity in data set [1] was 9.6 µM.
For “L230 LH domain (amino acids 680-895), wild type (domain or fragment)”, the dissociation constant Kd in data set [2] worked out at 23.9 nM. Also, the stoichiometry N in data set [3] and in data set [4] was 2 each time. Further, in data set [1], the estimated Km for bovine skin collagen in the enzymatic assay (succinate production); achievable collagen concentrations did not saturate activity is 2.6 µM.

B1: Human LH2 recombinant protein (residues 33-758), wild type (enzyme, UniProt O00469-2 33-758, looked up)
chain: SIPTDKLLVITVATKESDGFHRFMQSAKYFNYTVKVLGQGEEWRGGDGINSIGGGQKVRLMKEVMEHYADQDDLVVMFTECFDVIFAGGPEEVLKKFQKANHKVVFAADGILWPDKRLADKYPVVHIGKRYLNSGGFIGYAPYVNRIVQQWNLQDNDDDQLFYTKVYIDPLKREAINITLDHKCKIFQTLNGAVDEVVLKFENGKARAKNTFYETLPVAINGNGPTKILLNYFGNYVPNSWTQDNGCTLCEFDTVDLSAVDVHPNVSIGVFIEQPTPFLPRFLDILLTLDYPKEALKLFIHNKEVYHEKDIKVFFDKAKHEIKTIKIVGPEENLSQAEARNMGMDFCRQDEKCDYYFSVDADVVLTNPRTLKILIEQNRKIIAPLVTRHGKLWSNFWGALSPDGYYARSEDYVDIVQGNRVGVWNVPYMANVYLIKGKTLRSEMNERNYFVRDKLDPDMALCRNAREMTLQREKDSPTPETFQMLSPPKGVFMYISNRHEFGRLLSTANYNTSHYNNDLWQIFENPVDWKEKYINRDYSKIFTENIVEQPCPDVFWFPIFSEKACDELVEEMEHYGKWSGGKHHDSRISGGYENVPTDDIHMKQVDLENVWLHFIREFIAPVTLKVFAGYYTKGFALLNFVVKYSPERQRSLRPHHDASTFTINIALNNVGEDFQGGGCKFLRYNCSIESPRKGWSFMHPGRLTHLHEGLPVKNGTRYIAVSFIDP
notes: Human lysyl hydroxylase 2 (LH2), residues 33-758; the printed end at 758 and the residues D689 and L735 fit the 758-residue isoform; also called lysyl hydroxylase 2; source: ExpiCHO cells, transient transfection, secreted
As for B1, the binding result in data set [5] is “binds”.
